Source: US20210214461A1

Experiments:
[1] = target: pre-existing anti-scFv903 antibodies in human serum H105 (human); assay: competition ADA bridging ELISA
[2] = target: pre-existing anti-scFv903 antibodies in human serum H115 (human); assay: competition ADA bridging ELISA
[3] = target: pre-existing anti-scFv903 antibodies in human serum H116 (human); assay: competition ADA bridging ELISA
[4] = target: pre-existing anti-scFv903 antibodies in human serum H125 (human); assay: competition ADA bridging ELISA
[5] = target: pre-existing anti-scFv903 antibodies in human serum H135 (human); assay: competition ADA bridging ELISA
[6] = target: pre-existing anti-scFv903 antibodies in human serum H14 (human); assay: competition ADA bridging ELISA
[7] = target: pre-existing anti-scFv903 antibodies in human serum H15 (human); assay: competition ADA bridging ELISA
[8] = target: pre-existing anti-scFv903 antibodies in human serum H19 (human); assay: competition ADA bridging ELISA
[9] = target: pre-existing anti-scFv903 antibodies in human serum H20 (human); assay: competition ADA bridging ELISA
[10] = target: pre-existing anti-scFv903 antibodies in human serum H21 (human); assay: competition ADA bridging ELISA
[11] = target: pre-existing anti-scFv903 antibodies in human serum H26 (human); assay: competition ADA bridging ELISA
[12] = target: pre-existing anti-scFv903 antibodies in human serum H29 (human); assay: competition ADA bridging ELISA
[13] = target: pre-existing anti-scFv903 antibodies in human serum H3 (human); assay: competition ADA bridging ELISA
[14] = target: pre-existing anti-scFv903 antibodies in human serum H40 (human); assay: competition ADA bridging ELISA
[15] = target: pre-existing anti-scFv903 antibodies in human serum H46 (human); assay: competition ADA bridging ELISA
[16] = target: pre-existing anti-scFv903 antibodies in human serum H49 (human); assay: competition ADA bridging ELISA
[17] = target: pre-existing anti-scFv903 antibodies in human serum H50 (human); assay: competition ADA bridging ELISA
[18] = target: pre-existing anti-scFv903 antibodies in human serum H53 (human); assay: competition ADA bridging ELISA
[19] = target: pre-existing anti-scFv903 antibodies in human serum H54 (human); assay: competition ADA bridging ELISA
[20] = target: pre-existing anti-scFv903 antibodies in human serum H55 (human); assay: competition ADA bridging ELISA
[21] = target: pre-existing anti-scFv903 antibodies in human serum H56 (human); assay: competition ADA bridging ELISA
[22] = target: pre-existing anti-scFv903 antibodies in human serum H59 (human); assay: competition ADA bridging ELISA
[23] = target: pre-existing anti-scFv903 antibodies in human serum H60 (human); assay: competition ADA bridging ELISA
[24] = target: pre-existing anti-scFv903 antibodies in human serum H63 (human); assay: competition ADA bridging ELISA
[25] = target: pre-existing anti-scFv903 antibodies in human serum H64 (human); assay: competition ADA bridging ELISA
[26] = target: pre-existing anti-scFv903 antibodies in human serum H66 (human); assay: competition ADA bridging ELISA
[27] = target: pre-existing anti-scFv903 antibodies in human serum H69 (human); assay: competition ADA bridging ELISA
[28] = target: pre-existing anti-scFv903 antibodies in human serum H76 (human); assay: competition ADA bridging ELISA
[29] = target: pre-existing anti-scFv903 antibodies in human serum H79 (human); assay: competition ADA bridging ELISA
[30] = target: pre-existing anti-scFv903 antibodies in human serum H8 (human); assay: competition ADA bridging ELISA
[31] = target: pre-existing anti-scFv903 antibodies in human serum H80 (human); assay: competition ADA bridging ELISA
[32] = target: pre-existing anti-scFv903 antibodies in human serum H81 (human); assay: competition ADA bridging ELISA
[33] = target: pre-existing anti-scFv903 antibodies in human serum H86 (human); assay: competition ADA bridging ELISA
[34] = target: pre-existing anti-scFv903 antibodies in human serum H96 (human); assay: competition ADA bridging ELISA
[35] = target: pre-existing anti-scFv903 antibodies in human serum H116 (human); assay: competition ADA bridging ELISA, 100 mcg/ml competitor
[36] = target: pre-existing anti-scFv903 antibodies in human serum H135 (human); assay: as above
[37] = target: pre-existing anti-scFv903 antibodies in human serum H15 (human); assay: as above
[38] = target: pre-existing anti-scFv903 antibodies in human serum H19 (human); assay: as above
[39] = target: pre-existing anti-scFv903 antibodies in human serum H3 (human); assay: as above
[40] = target: pre-existing anti-scFv903 antibodies in human serum H46 (human); assay: as above
[41] = target: pre-existing anti-scFv903 antibodies in human serum H53 (human); assay: as above
[42] = target: pre-existing anti-scFv903 antibodies in human serum H55 (human); assay: as above
[43] = target: pre-existing anti-scFv903 antibodies in human serum H59 (human); assay: as above
[44] = target: pre-existing anti-scFv903 antibodies in human serum H8 (human); assay: as above
[45] = target: pre-existing anti-scFv903 antibodies in human serum H80 (human); assay: as above
[46] = target: pre-existing anti-scFv903 antibodies in human serum H81 (human); assay: as above

B1: scFv 791 (scFv)
scFv: MEIVMTQSPSTLSASLGDRVIITCQSSQSVYGNIWMAWYQQKSGKAPKLLIYQASKLASGVPSRFSGSGSGAEFSLTISSLQPDDFATYYCQGNFNTGDRYAFGQGTKLTVLGGGGGSGGGGSGGGGSGGGGSEVQLVESGGGLVQPGGSLRLSCTASGFTISRSYWICWVRQAPGKGLEWVACIYGDNDITPLYANWAKGRFPVSTDTSKNTVYLQMNSLRAEDTAVYYCARLGYADYAYDLWGQGTLVTVSS
[1]
  signal change in competition ELISA (% reduction in OD): -97%
[2]
  signal change in competition ELISA (% reduction in OD): -95%
[3]
  signal change in competition ELISA (% reduction in OD): -97%
[4]
  signal change in competition ELISA (% reduction in OD): -97%
[5]
  signal change in competition ELISA (% reduction in OD): -95%
[6]
  signal change in competition ELISA (% reduction in OD): -96%
[7]
  signal change in competition ELISA (% reduction in OD): -90%
[8]
  signal change in competition ELISA (% reduction in OD): -84%
[9]
  signal change in competition ELISA (% reduction in OD): -96%
[10]
  signal change in competition ELISA (% reduction in OD): -85%
[11]
  signal change in competition ELISA (% reduction in OD): -97%
[12]
  signal change in competition ELISA (% reduction in OD): -79%
[13]
  signal change in competition ELISA (% reduction in OD): -85%
[14]
  signal change in competition ELISA (% reduction in OD): -95%
[15]
  signal change in competition ELISA (% reduction in OD): -77%
[16]
  signal change in competition ELISA (% reduction in OD): -81%
[17]
  signal change in competition ELISA (% reduction in OD): -89%
[18]
  signal change in competition ELISA (% reduction in OD): -35%
[19]
  signal change in competition ELISA (% reduction in OD): -92%
[20]
  signal change in competition ELISA (% reduction in OD): -96%
[21]
  signal change in competition ELISA (% reduction in OD): -15%
[22]
  signal change in competition ELISA (% reduction in OD): -96%
[23]
  signal change in competition ELISA (% reduction in OD): -95%
[24]
  signal change in competition ELISA (% reduction in OD): -20%
[25]
  signal change in competition ELISA (% reduction in OD): -96%
[26]
  signal change in competition ELISA (% reduction in OD): -96%
[27]
  signal change in competition ELISA (% reduction in OD): -75%
[28]
  signal change in competition ELISA (% reduction in OD): -96%
[29]
  signal change in competition ELISA (% reduction in OD): -97%
[30]
  signal change in competition ELISA (% reduction in OD): -91%
[31]
  signal change in competition ELISA (% reduction in OD): -85%
[32]
  signal change in competition ELISA (% reduction in OD): -94%
[33]
  signal change in competition ELISA (% reduction in OD): -87%
[34]
  signal change in competition ELISA (% reduction in OD): -79%
[35]
  % reduction in OD: -97.2%
[36]
  % reduction in OD: -95.2%
[37]
  % reduction in OD: -90%
[38]
  % reduction in OD: -84.3%
[39]
  % reduction in OD: -85%
[40]
  % reduction in OD: -77.1%
[41]
  % reduction in OD: -34.6%
[42]
  % reduction in OD: -96%
[43]
  % reduction in OD: -96.4%
[44]
  % reduction in OD: -90.7%
[45]
  % reduction in OD: -85.3%
[46]
  % reduction in OD: -94.4%

B2: scFv 903 (scFv)
scFv: EIVMTQSPSTLSASVGDRVIITCQASEIIHSWLAWYQQKPGKAPKLLIYLASTLASGVPSRFSGSGSGAEFTLTISSLQPDDFATYYCQNVYLASTNGANFGQGTKLTVLGGGGGSGGGGSGGGGSGGGGSEVQLVESGGGLVQPGGSLRLSCTASGFSLTDYYYMTWVRQAPGKGLEWVGFIDPDDDPYYATWAKGRFTISRDTSKNTVYLQMNSLRAEDTAVYYCAGGDHNSGWGLDIWGQGTLVTVSS
[1]
  signal change in competition ELISA (% reduction in OD): -97%
[2]
  signal change in competition ELISA (% reduction in OD): -95%
[3]
  signal change in competition ELISA (% reduction in OD): -98%
[4]
  signal change in competition ELISA (% reduction in OD): -98%
[5]
  signal change in competition ELISA (% reduction in OD): -93%
[6]
  signal change in competition ELISA (% reduction in OD): -97%
[7]
  signal change in competition ELISA (% reduction in OD): -91%
[8]
  signal change in competition ELISA (% reduction in OD): -90%
[9]
  signal change in competition ELISA (% reduction in OD): -92%
[10]
  signal change in competition ELISA (% reduction in OD): -85%
[11]
  signal change in competition ELISA (% reduction in OD): -92%
[12]
  signal change in competition ELISA (% reduction in OD): -79%
[13]
  signal change in competition ELISA (% reduction in OD): -80%
[14]
  signal change in competition ELISA (% reduction in OD): -95%
[15]
  signal change in competition ELISA (% reduction in OD): -80%
[16]
  signal change in competition ELISA (% reduction in OD): -83%
[17]
  signal change in competition ELISA (% reduction in OD): -89%
[18]
  signal change in competition ELISA (% reduction in OD): -32%
[19]
  signal change in competition ELISA (% reduction in OD): -93%
[20]
  signal change in competition ELISA (% reduction in OD): -89%
[21]
  signal change in competition ELISA (% reduction in OD): -24%
[22]
  signal change in competition ELISA (% reduction in OD): -97%
[23]
  signal change in competition ELISA (% reduction in OD): -96%
[24]
  signal change in competition ELISA (% reduction in OD): -97%
[25]
  signal change in competition ELISA (% reduction in OD): -97%
[26]
  signal change in competition ELISA (% reduction in OD): -97%
[27]
  signal change in competition ELISA (% reduction in OD): -92%
[28]
  signal change in competition ELISA (% reduction in OD): -97%
[29]
  signal change in competition ELISA (% reduction in OD): -97%
[30]
  signal change in competition ELISA (% reduction in OD): -87%
[31]
  signal change in competition ELISA (% reduction in OD): -87%
[32]
  signal change in competition ELISA (% reduction in OD): -95%
[33]
  signal change in competition ELISA (% reduction in OD): -86%
[34]
  signal change in competition ELISA (% reduction in OD): -80%
[35]
  % reduction in OD: -97.8%
[36]
  % reduction in OD: -92.5%
[37]
  % change in OD (signal change in competition ELISA): -91.1%
[38]
  signal change in competition ELISA (% change in OD): -90.3%
[39]
  % reduction in OD: -79.9%
[40]
  % change in OD signal: -79.8%
[41]
  signal change in competition ELISA (%): -32.4%
[42]
  % signal change in OD (negative = reduction): -89.4%
[43]
  signal change in competition ELISA (% change in OD): -97%
[44]
  % reduction in OD: -87.3%
[45]
  % reduction in OD: -87%
[46]
  % reduction in OD: -94.7%
